Source: publication PMC12168134, “Improving the solubility of single domain antibodies using VH‐like hallmark residues” (Protein Science : A Publication of the Protein Society, 2025)

Assays:
[1] = target: the molecule itself; assay: SEC; Hiload 16/600 Superdex 200 pg in PBS; Nlgn2 extracellular domain with His6
[2] = target: the molecule itself; assay: SEC; Nlgn2 with Avitag; 10 mM HEPES-NaOH pH 7.4, 150 mM NaCl, 3 mM CaCl2

| Protein | stoichiometry N [1] | stoichiometry N [2] |
| --- | --- | --- |
| Nlgn2 extracellular domain with His6 tag in the C-terminus (domain or fragment, mouse, UniProt Q69ZK9 15-678, looked up, Neuroligin 2 (Nlgn2), mouse, extracellular domain, residues 15-678; Construct used to immunise the alpaca; main SEC peak was a dimer; also called recombinant Nlgn2 extracellular domain; mouse Nlgn2 (15-678); source: Expi293F cells, supernatant, purified (Ni-NTA, SEC); not shown: His6, C-terminal, kept) QRGGGGPGGGAPGGPGLGLGSLGEERFPVVNTAYGRVRGVRRELNNEILGPVVQFLGVPYATPPLGARRFQPPEAPASWPGVRNATTLPPACPQNLHGALPAIMLPVWFTDNLEAAATYVQNQSEDCLYLNLYVPTEDGPLTKKRDEATLNPPDTDIRDSGKKPVMLFLHGGSYMEGTGNMFDGSVLAAYGNVIVVTLNYRLGVLGFLSTGDQAAKGNYGLLDQIQALRWLSENIAHFGGDPERITIFGSGAGASCVNLLILSHHSEGLFQKAIAQSGTAISSWSVNYQPLKYTRLLAAKVGCDREDSTEAVECLRRKSSRELVDQDVQPARYHIAFGPVVDGDVVPDDPEILMQQGEFLNYDMLIGVNQGEGLKFVEDSAESEDGVSASAFDFTVSNFVDNLYGYPEGKDVLRETIKFMYTDWADRDNGEMRRKTLLALFTDHQWVAPAVATAKLHADYQSPVYFYTFYHHCQAEGRPEWADAAHGDELPYVFGVPMVGATDLFPCNFSKNDVMLSAVVMTYWTNFAKTGDPNQPVPQDTKFIHTKPNRFEEVVWSKFNSKEKQYLHIGLKPRVRDNYRANKVAFWLELVPHLHNLHTELFTTTTRLPPYATRWPPRTPGPGTSGTRRPPPPATLPPESDIDLGPRAYDRFPGDSRDYSTELS | 2 |  |
| Biotinylated recombinant Nlgn2 extracellular domain with Avitag (domain or fragment, mouse, UniProt Q69ZK9 15-678, looked up, biotin on the Avitag (biotinylated with BirA), Neuroligin 2 (Nlgn2), extracellular domain; residues 15-678 of mouse Nlgn2 are stated only for the His6 construct used for immunisation, not for this Avitag construct; probably the same; Eluted as a dimeric peak in SEC; also called Nlgn2 with Avitag; Biotinylated Nlgn2; source: purified by SEC, biotinylated with BirA; not shown: Avitag, C-terminal, kept) QRGGGGPGGGAPGGPGLGLGSLGEERFPVVNTAYGRVRGVRRELNNEILGPVVQFLGVPYATPPLGARRFQPPEAPASWPGVRNATTLPPACPQNLHGALPAIMLPVWFTDNLEAAATYVQNQSEDCLYLNLYVPTEDGPLTKKRDEATLNPPDTDIRDSGKKPVMLFLHGGSYMEGTGNMFDGSVLAAYGNVIVVTLNYRLGVLGFLSTGDQAAKGNYGLLDQIQALRWLSENIAHFGGDPERITIFGSGAGASCVNLLILSHHSEGLFQKAIAQSGTAISSWSVNYQPLKYTRLLAAKVGCDREDSTEAVECLRRKSSRELVDQDVQPARYHIAFGPVVDGDVVPDDPEILMQQGEFLNYDMLIGVNQGEGLKFVEDSAESEDGVSASAFDFTVSNFVDNLYGYPEGKDVLRETIKFMYTDWADRDNGEMRRKTLLALFTDHQWVAPAVATAKLHADYQSPVYFYTFYHHCQAEGRPEWADAAHGDELPYVFGVPMVGATDLFPCNFSKNDVMLSAVVMTYWTNFAKTGDPNQPVPQDTKFIHTKPNRFEEVVWSKFNSKEKQYLHIGLKPRVRDNYRANKVAFWLELVPHLHNLHTELFTTTTRLPPYATRWPPRTPGPGTSGTRRPPPPATLPPESDIDLGPRAYDRFPGDSRDYSTELS |  | 2 |
